Data: article PMC4417145

Target: T1, HMGA2 (high-mobility-group protein AT-hook 2) (mammalian (species ), UniProt P52926 1-109)
T1 sequence: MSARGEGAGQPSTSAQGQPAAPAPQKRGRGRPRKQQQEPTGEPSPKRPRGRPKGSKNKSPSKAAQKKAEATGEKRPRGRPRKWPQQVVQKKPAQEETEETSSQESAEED
Assay: PDI-ELISA

B1: FL842/FL843 (SELEX1 duplex) (dsDNA)
DNA 1: CCCCCCATATTCGCGATTATTGCGC
DNA 2: GCGCAATAATCGCGAATATGGGGGG
B1: binds.
